Data: patent publication US20250361282A1 (Bayer, published 2025)
Numbering of substitutions follows the chain as printed. Blank lines part the entries; values can stand above or below the binder they belong to.

Assays:
Assay in all cases: cell-based or functional assay
rat NPR-B = target: T1, rat NPR-B (rat, UniProt P16067 17-1047)
T1 sequence (looked up): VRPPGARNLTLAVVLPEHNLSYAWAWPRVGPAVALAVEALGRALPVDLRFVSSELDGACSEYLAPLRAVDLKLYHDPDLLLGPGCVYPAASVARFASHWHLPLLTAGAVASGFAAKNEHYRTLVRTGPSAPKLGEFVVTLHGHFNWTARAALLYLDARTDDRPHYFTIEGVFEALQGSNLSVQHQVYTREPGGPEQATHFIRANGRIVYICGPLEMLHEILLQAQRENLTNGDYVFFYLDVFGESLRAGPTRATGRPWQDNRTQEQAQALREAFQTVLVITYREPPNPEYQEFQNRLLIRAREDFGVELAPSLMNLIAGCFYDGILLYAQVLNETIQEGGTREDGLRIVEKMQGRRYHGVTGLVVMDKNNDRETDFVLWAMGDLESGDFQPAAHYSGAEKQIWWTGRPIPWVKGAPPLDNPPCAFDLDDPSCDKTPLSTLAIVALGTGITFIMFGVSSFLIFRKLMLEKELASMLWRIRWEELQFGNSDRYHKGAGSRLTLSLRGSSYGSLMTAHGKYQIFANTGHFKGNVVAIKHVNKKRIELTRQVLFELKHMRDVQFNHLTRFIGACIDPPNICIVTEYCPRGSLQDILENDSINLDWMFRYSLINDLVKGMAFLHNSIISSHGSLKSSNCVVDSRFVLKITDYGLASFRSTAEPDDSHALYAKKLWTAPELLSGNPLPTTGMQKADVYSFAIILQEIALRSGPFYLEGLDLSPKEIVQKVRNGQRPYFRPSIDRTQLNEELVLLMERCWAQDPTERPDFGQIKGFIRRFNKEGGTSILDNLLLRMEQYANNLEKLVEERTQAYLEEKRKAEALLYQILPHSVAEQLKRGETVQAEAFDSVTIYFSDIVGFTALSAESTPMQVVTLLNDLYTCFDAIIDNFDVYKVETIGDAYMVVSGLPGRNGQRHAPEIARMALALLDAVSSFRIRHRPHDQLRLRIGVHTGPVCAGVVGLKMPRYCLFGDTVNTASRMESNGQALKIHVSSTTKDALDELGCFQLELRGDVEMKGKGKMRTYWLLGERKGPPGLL

rat NPR-A = target: T2, rat NPR-A (rat, UniProt P18910 29-1057)
T2 sequence (looked up): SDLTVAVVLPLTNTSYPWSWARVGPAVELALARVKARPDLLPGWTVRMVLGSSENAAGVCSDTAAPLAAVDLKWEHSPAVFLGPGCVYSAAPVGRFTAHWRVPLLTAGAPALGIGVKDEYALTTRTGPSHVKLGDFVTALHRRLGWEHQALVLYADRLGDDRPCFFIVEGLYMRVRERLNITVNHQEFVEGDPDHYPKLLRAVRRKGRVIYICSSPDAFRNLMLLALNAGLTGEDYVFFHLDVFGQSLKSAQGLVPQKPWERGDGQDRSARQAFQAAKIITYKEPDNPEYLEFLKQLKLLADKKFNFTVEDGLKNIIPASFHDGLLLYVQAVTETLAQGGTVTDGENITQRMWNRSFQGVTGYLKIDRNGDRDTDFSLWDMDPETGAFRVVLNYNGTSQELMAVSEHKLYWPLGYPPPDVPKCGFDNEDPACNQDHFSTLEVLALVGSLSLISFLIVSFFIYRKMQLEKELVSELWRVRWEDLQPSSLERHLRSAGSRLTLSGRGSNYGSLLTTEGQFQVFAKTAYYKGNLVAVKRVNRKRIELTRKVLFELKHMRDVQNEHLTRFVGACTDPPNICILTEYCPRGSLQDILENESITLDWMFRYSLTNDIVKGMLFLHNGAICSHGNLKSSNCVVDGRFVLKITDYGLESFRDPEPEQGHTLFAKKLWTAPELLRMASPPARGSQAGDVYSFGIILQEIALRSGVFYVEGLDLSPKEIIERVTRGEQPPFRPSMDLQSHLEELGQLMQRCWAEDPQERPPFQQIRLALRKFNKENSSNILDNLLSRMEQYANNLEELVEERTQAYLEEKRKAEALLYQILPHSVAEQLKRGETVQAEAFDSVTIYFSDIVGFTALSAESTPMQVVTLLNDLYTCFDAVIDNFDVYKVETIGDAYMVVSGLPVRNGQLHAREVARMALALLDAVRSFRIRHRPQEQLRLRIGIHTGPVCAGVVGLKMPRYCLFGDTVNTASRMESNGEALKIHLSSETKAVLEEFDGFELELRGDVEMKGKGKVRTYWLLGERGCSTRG

human NPRA (hNPRA) = target: T3, human NPRA (hNPRA) (human, UniProt P16066 33-1061)
T3 sequence (looked up): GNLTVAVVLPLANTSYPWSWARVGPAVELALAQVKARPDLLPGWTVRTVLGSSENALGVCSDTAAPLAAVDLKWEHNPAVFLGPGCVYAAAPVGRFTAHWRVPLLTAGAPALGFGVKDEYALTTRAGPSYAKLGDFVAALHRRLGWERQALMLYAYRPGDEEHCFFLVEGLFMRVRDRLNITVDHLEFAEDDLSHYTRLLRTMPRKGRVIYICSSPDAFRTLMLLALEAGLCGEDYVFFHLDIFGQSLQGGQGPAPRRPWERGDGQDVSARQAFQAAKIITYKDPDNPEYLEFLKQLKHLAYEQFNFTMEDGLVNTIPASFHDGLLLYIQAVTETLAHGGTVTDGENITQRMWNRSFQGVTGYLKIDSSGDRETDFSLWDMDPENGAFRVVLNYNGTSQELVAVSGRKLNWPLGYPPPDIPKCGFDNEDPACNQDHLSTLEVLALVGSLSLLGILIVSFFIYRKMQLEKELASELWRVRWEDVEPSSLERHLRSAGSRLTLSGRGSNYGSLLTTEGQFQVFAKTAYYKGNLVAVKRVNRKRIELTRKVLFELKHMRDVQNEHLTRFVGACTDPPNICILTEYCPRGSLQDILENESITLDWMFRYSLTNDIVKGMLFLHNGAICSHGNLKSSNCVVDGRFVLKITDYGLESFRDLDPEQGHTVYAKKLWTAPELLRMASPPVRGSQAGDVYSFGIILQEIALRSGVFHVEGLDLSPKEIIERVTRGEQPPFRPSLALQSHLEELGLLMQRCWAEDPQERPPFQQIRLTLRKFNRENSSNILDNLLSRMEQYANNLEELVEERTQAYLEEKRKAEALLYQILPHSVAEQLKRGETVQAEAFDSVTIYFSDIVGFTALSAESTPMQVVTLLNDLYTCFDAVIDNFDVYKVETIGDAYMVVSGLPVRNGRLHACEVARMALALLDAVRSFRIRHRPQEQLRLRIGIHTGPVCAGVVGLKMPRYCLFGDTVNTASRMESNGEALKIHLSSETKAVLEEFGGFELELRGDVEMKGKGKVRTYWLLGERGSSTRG

EC50, luminescence signal of rat NPR-B reporter cells (rat NPR-B): 5.2 nM
B1: TPP-9465 (antibody)
heavy: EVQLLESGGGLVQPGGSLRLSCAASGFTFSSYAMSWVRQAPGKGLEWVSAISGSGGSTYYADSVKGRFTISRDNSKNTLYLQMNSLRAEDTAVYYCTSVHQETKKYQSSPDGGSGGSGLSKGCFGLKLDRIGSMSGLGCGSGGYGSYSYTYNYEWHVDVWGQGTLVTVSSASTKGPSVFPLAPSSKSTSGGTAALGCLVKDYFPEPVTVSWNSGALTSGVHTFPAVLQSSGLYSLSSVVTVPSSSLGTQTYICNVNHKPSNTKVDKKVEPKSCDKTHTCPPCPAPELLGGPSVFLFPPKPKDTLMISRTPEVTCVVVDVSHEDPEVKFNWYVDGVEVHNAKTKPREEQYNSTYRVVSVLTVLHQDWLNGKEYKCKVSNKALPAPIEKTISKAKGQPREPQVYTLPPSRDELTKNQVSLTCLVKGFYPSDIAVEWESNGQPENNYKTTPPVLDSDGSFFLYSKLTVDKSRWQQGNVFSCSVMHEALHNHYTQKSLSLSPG
light: QSVLTQPPSVSGAPGQRVTISCTGSSSNIGAGYDVHWYQQLPGTAPKLLIYGNSNRPSGVPDRFSGSKSGTSASLAITGLQAEDEADYYCQSYDSSLSGVVFGGGTKLTVLGQPKAAPSVTLFPPSSEELQANKATLVCLISDFYPGAVTVAWKADSSPVKAGVETTTPSKQSNNKYAASSYLSLTPEQWKSHRSYSCQVTHEGSTVEKTVAPTECS

EC50, fluorescence signal of rat NPR-A / CNGA2 (cGMP biosensor) / GCaMP6 CHO reporter cells (rat NPR-A): 17 nM | logEC50, cGMP quantification assay (HTRF), stable hNPRA-CHO k1 cells, isolated compound sample (human NPRA (hNPRA)): -8.8 | logEC50, cGMP quantification assay (HTRF), stable hNPRA-CHO k1 cells, purified compound sample, average of experiments (human NPRA (hNPRA)): -9.2 | logEC50, cGMP quantification assay (HTRF), transient hNPRA-HEK293 cells, purified compound sample, average of three experiments (human NPRA (hNPRA)): -9
B2: TPP-5661 (antibody)
heavy: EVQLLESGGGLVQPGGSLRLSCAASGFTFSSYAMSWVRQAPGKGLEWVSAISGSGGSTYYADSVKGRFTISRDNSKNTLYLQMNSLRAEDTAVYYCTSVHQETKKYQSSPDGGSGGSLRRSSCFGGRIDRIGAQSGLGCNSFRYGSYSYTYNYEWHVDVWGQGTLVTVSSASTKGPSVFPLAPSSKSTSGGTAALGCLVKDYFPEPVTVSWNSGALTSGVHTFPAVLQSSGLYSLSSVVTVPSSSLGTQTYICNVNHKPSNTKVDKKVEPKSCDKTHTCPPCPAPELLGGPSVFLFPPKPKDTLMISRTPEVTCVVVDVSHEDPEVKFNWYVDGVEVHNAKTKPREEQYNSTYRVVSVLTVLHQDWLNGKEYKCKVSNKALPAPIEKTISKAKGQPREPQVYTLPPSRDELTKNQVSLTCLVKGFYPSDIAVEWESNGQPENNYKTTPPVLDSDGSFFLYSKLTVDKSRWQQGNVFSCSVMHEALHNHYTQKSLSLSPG
light: B1 light

EC50, luminescence signal of rat NPR-B reporter cells (rat NPR-B): 10 nM
B3: TPP-12897 (antibody)
heavy: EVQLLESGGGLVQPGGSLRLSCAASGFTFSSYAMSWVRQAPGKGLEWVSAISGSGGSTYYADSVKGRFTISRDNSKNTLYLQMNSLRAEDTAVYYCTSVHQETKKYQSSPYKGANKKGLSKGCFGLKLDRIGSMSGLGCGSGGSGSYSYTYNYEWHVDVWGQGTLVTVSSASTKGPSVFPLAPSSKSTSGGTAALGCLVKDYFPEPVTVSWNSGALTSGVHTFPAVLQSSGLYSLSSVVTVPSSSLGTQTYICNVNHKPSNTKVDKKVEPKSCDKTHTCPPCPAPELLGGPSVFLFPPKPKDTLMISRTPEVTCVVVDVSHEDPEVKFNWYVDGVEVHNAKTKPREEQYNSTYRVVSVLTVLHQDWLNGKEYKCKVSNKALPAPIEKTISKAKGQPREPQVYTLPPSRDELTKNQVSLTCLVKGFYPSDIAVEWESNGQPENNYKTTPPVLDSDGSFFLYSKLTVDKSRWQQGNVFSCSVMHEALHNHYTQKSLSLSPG
light: B1 light with S98D

EC50, luminescence signal of rat NPR-B reporter cells (rat NPR-B): 4.1 nM
B4: TPP-12377 (antibody)
heavy: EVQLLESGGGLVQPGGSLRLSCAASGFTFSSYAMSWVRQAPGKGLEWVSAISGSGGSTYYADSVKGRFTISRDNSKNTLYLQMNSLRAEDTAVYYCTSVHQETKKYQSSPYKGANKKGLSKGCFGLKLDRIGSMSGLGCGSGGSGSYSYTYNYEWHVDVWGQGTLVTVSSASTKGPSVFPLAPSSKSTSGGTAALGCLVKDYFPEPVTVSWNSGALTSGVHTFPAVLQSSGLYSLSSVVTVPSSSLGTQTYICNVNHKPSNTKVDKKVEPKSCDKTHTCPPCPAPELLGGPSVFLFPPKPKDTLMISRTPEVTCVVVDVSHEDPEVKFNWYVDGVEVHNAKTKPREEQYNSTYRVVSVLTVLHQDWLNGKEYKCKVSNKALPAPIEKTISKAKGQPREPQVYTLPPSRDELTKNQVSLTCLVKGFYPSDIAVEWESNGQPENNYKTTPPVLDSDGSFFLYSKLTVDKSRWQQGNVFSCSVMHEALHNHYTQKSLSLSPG
light: B1 light
